Values quoted from earlier work as cited in paper PMC8467547.

Columns and labels:
IFNAR2 (Homo sapiens) = IFNAR2 (Homo sapiens) (UniProt P48551)
IFNAR1 (Homo sapiens) = IFNAR1 (Homo sapiens) (UniProt P17181)
UniProt P17181, sequence (P17181 28-436): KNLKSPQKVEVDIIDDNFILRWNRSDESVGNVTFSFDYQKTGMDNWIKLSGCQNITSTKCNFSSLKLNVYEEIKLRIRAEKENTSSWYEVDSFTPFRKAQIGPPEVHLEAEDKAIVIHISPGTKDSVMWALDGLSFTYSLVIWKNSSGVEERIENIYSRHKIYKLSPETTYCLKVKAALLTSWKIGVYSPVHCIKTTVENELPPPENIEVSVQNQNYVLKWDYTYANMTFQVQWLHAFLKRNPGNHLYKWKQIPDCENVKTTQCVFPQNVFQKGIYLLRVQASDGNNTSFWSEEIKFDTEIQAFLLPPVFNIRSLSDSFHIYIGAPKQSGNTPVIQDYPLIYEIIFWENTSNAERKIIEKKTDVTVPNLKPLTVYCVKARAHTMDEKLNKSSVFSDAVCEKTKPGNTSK

UniProt P48551, sequence (P48551 27-243): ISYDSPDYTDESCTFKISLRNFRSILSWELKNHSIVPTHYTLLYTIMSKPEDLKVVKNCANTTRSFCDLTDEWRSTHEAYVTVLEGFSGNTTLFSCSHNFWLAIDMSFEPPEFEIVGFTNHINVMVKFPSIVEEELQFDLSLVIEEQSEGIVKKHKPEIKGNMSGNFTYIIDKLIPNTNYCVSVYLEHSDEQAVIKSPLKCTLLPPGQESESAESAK

IFN-beta (from UniProt P01574)
Kd (IFNAR2 (Homo sapiens)): 0.2 nM | Kd (IFNAR1 (Homo sapiens)): 100 nM
